Laboratory results published in patent US20220396632A1.
One block for each binder: values may come before it.

Molecular target: T1, Scrambled Y42,52,63(SO3) PSGL-1(42-62) biotin peptide
T1 sequence (peptide, sulfotyrosine at peptide positions 1, 11 and 22; C-terminal Lys-biotin): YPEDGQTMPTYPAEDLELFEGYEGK
Assay: ELISA, immobilized biotin peptide

A450nm, 20 nM mAb: 0.12 A450nm
B1: 03D01 (antibody, IgG4, V domains shown)
VH: EVQLVQSGGGLVQPGGSLRLSCAATGFTVSRNYMTWVREAPGKGLEWVAGIYKSGTTSYIESVKGRFTISRDNSKNTLYLEMSRLRAEDTAVYYCAKSTSTWGQGTQVTVSS
VL: DVVMTQSPVSLPVTLGQPASISCRSSRNLLYSNGNTYLNWFHQRPGQSPRRLIYKVSNQDSGVPDRFSGSGSGTDFTLKISRVEAEDVGVYYCMQGTHWPTTFGQGTRLEIK

A450nm, 20 nM mAb: 0.09 A450nm
B2: 09D11 (antibody, IgG4, V domains shown)
VH: QVQLVESGGGFIQPGGSLRLSCAASGLTFSNYAMTWVRQAPGKGLEWVSTISGGGGNTYYTDSVKGRFTISRDNSKNTLYLQMNSLKAEDTAVYRCAKGLAAALFDYWGQGTLVTVSS
VL: DIVLTQSPDSLPVTPGEPASISCRSSRSLLHSNGHNFLAWYLQKPGQSPHLLIYLGSNRASGVPDRFSGSGSGTDFTLKISRVEAEDVGIYYCMQALQTPITFGQGTRLDIK

A450nm, 20 nM mAb: 0.37 A450nm
B3: 09B09 (antibody, IgG4, V domains shown)
VH: EVKLLESGGGLVQPGGSLRLSCAASGITFSTYAMMWVRQAPGKGLEWVSGISGSGASRYYADSVKGRFTISRDNSKNMLYLQMNSLRAEDTAVYYCAKKVLGRRKQYFDDWGQGTLVTVSS
VL: DIVMTQSPLSLPVTPGEPASISCRSSQSLLHSNGYNYLDWYLQRPGQSPQLLIYLGSHRASGVPDRFSGSGSGTEHTLKITTVAAEDVGVYYCMQALQSPPTFGQGTRLDIK

A450nm, 20 nM mAb: 0.13 A450nm
B4: 01A04 (antibody, IgG4, V domains shown)
VH: EVQLVQSGAEVKKPGASVKVSCKASGYTFTSYYIHWVRQAPGQGLEWMGIIRPSGGSTSYAQKFQGRVTMTRDTSTSTVYMELSSLRSEDTAMYYCARVGVGSFDYWGQGTLVTVSS
VL: DIQMTQSPSTLSASVGDRVTITCRASQSVSNWLAWYQQKPGKAPKLLIYKASSLESGVPSRFSGSGSGTEFTLTISSLQPDDFATYYCQWFRTFGPGTKVDIK
